In US20250122306A1 (SUTRO BIOPHARMA, published 2025):
Residue numbers refer to the chain shown, from its start.

T1: cynomolgus tissue factor (cynomolgus TF, Sino Bio #90885-C08H) (cynomolgus monkey, UniProt P13726 33-251 (human entry))
T1 construct: bought recombinant antigen; also called cyno TF
T1 chain: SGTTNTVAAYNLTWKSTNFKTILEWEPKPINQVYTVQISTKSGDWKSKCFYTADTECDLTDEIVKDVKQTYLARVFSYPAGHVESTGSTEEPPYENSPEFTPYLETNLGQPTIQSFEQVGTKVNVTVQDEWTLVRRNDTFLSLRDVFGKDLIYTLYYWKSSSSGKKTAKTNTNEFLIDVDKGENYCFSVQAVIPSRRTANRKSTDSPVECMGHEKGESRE

B1: 2842-B01 HC1/LC1 (antibody, V domains shown)
VH: QVQVVESGGGLVKPGGSLRLSCAASGFSISSYDMSWIRQAPGKGLEWIGIIGSNGRTYYADSVKGRFTISRNTNENTVYLQMNSLRAEDTAVYYCARGLYDGTGNIWGQGTLVTVSS
VL: DLQMTQSPSSLSASVGDRVTITCRASQSVYGNNWLSWYQQKPGKAPKLLIYGASKLASGVPSRFSGSGSGTQFTLTISSLQPEDFATYYCQGTYYSGDWYFAFGQGTKVEIK
notes: humanized rabbit antibody, variable regions fused to human IGHG1 and IGKC
B2: 2842-B01 HC1/LC2 (antibody, V domains shown)
VH: B1 VH
VL: ELVMTQSPPTLSLSPGERVTLSCRASQSVYGNNWLSWYQQKPGQAPRLLIYGASKLATSIPARFSGSGSGTQFTLTISSLQPEDFAVYYCQGTYYSGDWYFAFGQGTKVEIK
notes: as for B1
B3: SRP2901-E03 (antibody, V domains shown)
VH: B1 VH with Q1E, V4L, K13Q, I37V, A60P, N72D, T73N, N74S, E75K, Y79T
VL: B2 VL
notes: humanized rabbit antibody, variable regions fused to human IGHG1 and IGKC; also called 2842-B01 HC3/LC2
B4: SRP2901-F01 (antibody, V domains shown)
VH: B1 VH
VL: B1 VL with L2I, R24Q, Q72D, Q105G
notes: humanized rabbit antibody, variable regions fused to human IGHG1 and IGKC; also called 2842-B01 HC1/LC3
B5: SRP2901-D03 (antibody, V domains shown)
VH: B1 VH with Q1E, V4L, K13Q, I37V, A60P, N72D, T73N, N74S, E75K, Y79T
VL: B1 VL
notes: humanized rabbit antibody, variable regions fused to human IGHG1 and IGKC; also called 2842-B01 HC3/LC1
B6: SRP2901-B05 (antibody, V domains shown)
VH: QVQVQESGPGLVKPPGTLSLTCAVSGFSLSYYGVSWVRQPPGKGLEWIGTIDSSGRTYYNPSLKSRVTISNDNAPNTVSLKLSSVTAADTAVYYCARDFYGWNSGALDIWGQGTLVTVSS
VL: DLQLTQSPSTLSASVGDRVTITCRASQSVYSNKYLSWYQQKPGKAPKLLIYKASTLASGVPSRFSGSGSGTEFTLTISSLQPDDFATYYCAAAYSDDSDTAFGQGTKVEIK
notes: humanized rabbit antibody, variable regions fused to human IGHG1 and IGKC; also called 2842-G04 HC2/LC2
B7: Conjugate 7: 2900-A02 F241/F404 LP2 (antibody, human IgG1, kappa)
heavy: MEVQLVESGGGLVQPGGSLRLSCAASGFTISGYIIHWVRQAPGKGLEWVGYIDPSNGYTYYADSVKGRFTISADTSKNTAYLQMNSLRAEDTAVYYCARDDQSLSSPFDYWGQGTLVTVSSASTKGPSVFPLAPSSKSTSGGTAALGCLVKDYFPEPVTVSWNSGALTSGVHTFPAVLQSSGLYSLSSVVTVPSSSLGTQTYICNVNHKPSNTKVDKKVEPKSCDKTHTCPPCPAPELLGGPSVLFPPKPKDTLMISRTPEVTCVVVDVSHEDPEVKFNWYVDGVEVHNAKTKPREEQYNSTYRVVSVLTVLHQDWLNGKEYKCKVSNKALPAPIEKTISKAKGQPREPQVYTLPPSREEMTKNQVSLTCLVKGFYPSDIAVEWESNGQPENNYKTTPPVLDSDGSFLYSKLTVDKSRWQQGNVFSCSVMHEALHNHYTQKSLSLSPGK
light: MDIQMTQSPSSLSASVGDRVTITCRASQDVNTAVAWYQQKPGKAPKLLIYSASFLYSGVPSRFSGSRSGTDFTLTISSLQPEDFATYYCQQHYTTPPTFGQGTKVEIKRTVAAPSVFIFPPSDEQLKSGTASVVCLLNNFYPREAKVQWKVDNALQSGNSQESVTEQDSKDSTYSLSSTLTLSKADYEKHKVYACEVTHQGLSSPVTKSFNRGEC
modifications: pAMF at F241 and F404 (EU), each linked to LP2 (DBCO-beta-Glucuronide-PEG12-Exatecan)
notes: antibody-drug conjugate, DAR about 4; also called Trastuzumab LC SerOpt

Tests used:
[1] = biological target: tissue factor reagent of the Tissue Factor Activity Assay Kit (Abcam #ab108906) (UniProt P13726 33-295, limits assumed); assay: cell-based or functional assay
tissue factor reagent of the Tissue Factor Activity Assay Kit (Abcam #ab108906), sequence (P13726 33-295 limits assumed): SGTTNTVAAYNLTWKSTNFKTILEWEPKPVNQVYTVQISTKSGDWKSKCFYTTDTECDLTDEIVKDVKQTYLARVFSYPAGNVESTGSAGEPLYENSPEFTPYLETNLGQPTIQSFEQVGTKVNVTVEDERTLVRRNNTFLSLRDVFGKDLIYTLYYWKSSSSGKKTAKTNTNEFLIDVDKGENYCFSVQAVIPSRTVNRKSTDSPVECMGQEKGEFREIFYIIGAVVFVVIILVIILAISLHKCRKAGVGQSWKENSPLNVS

[2] = biological target: T2, human tissue factor (human TF, Lake Pharma) (human, UniProt P13726 33-251, limits assumed); assay: Biacore SPR, single-point off-rate (100 nM antigen), antibody captured on anti-Fc
T2 construct: bought recombinant antigen; also called CD142

[3] = biological target: T1, cynomolgus tissue factor (cynomolgus …); assay: as above
[4] = biological target: T3, human tissue factor on cells (human, UniProt P13726 33-295); assay: flow cytometry on BxPC3 cells (TF positive), one-site fit of MFI
T3 construct: cell-surface TF, transfected (HEK293T-humanTF) or endogenous (tumour lines, keratinocytes); the cell line is named under assay; also called HEK293T-humanTF; TF on BxPC3, primary human keratinocytes, NCI-H292, HCC1954, NCI-H1975
T3 sequence (P13726 33-295 limits assumed): as above
Description: HEK293T, BxPC3 cells (TF positive) and NCI-H1703 (TF negative) cells were obtained from ATCC (American Type Culture Collection) and maintained in DMEM: F12 (1:1), high glucose (Corning) supplemented with 10% heat-inactivated fetal bovine serum (ThermoScientific), 1× Penicillin/Streptomycin (Corning) and 2 mmol glutamax (Thermo Fisher Scientific). To generate cells that stably expressing human tissue factor (HEK293T-humanTF) or cynomolgus tissue factor (HEK293T-cynoTF), HEK293T cells were transfected with plasmid vectors that contain the corresponding protein sequence and stable clones were selected with puromycin.
For a fluorescence-activated cell sorting (FACS) cell-binding assay, cells were collected by Accutase and counted by the Vi-CELL Cell Viability Analyzersharvested and, then re-suspended in FACS buffer (DPBS buffer supplemented with 1% bovine serum albumin). A total of 200,000 cells in 100 μL were incubated on ice with 100 μL of anti-TF antibodies in each well of a 96-well plate. Cells were washed twice with ice-cold FACS buffer and then incubated on ice for 60 mins with 5 μg/mL Alexa 647-labeled donkey anti-human Fc antibody (Jackson ImmunoResearch). Unstained cells and cells stained with secondary antibody alone were used as controls. Cells were washed twice with FACS buffer and analyzed using a BD FACS Canto system. Geometric mean fluorescence intensities (MFI) were fitted using non-linear regression analysis with one site specific binding equation on GraphPad Prism (GraphPad Software; La Jolla, CA).

[5] = biological target: T2, human tissue factor (human TF, Lake …); assay: Biacore SPR kinetics, ADC captured on anti-Fc, 1:1 Langmuir fit
Method: (§1) Anti-Fc polyclonal antibodies were immobilized onto a CM4 chip (Cytiva #BR100534) using amine coupling chemistry (Human Antibody Capture Kit, Cytiva #BR100839). The immobilization steps were carried out at a flow rate of […] in 1×HBS-EP+buffer (Cytiva #BR100669). The sensor surfaces were activated for 7 min with a mixture of NHS (0.05 M) and EDC (0.2 M). The Anti-Fc antibodies were injected over all 4 flow cells at a concentration of 25 μg/ml in 10 mM sodium acetate, pH 4.5, for 7 min. Ethanolamine (1 M, pH 8.5) was injected for 7 min to block any remaining activated groups. […] Off-rate and kinetic binding experiments were performed at 25° C. using 1×HBS-EP+buffer. Antibodies or ADCs were injected over the anti-Fc surface at a concentration of 3 μg/mL for 12 seconds at a flow rate of 10 μL/min on flow cells 2, 3 and 4, followed by a buffer wash for 30 seconds at the same flow rate. […] After capturing ligand (antibody) on the anti-Fc surface, the analyte (human TF, Lake Pharma; cynomolgus TF, Sino Bio #90885-C08H; mouse TF, R&D Systems #3178-PA) was bound for 180 seconds, followed by a 420 second dissociation phase at a flow rate of 50 μL/min. Between each ligand capture and analyte binding cycle, regeneration was carried out using 2 injections of 10 mM Glycine pH 2.0 for 30 seconds at 30 μL/min, followed by a 30 second buffer wash step. The data was fit with the Biacore T200 Evaluation software, using a 1-1 Langmuir binding model. KD (affinity, nM) was determined as a ratio of the kinetic rate constants calculated from the fits of the association and dissociation phases.

[6] = biological target: T1, cynomolgus tissue factor (cynomolgus …); assay: as above
Method: as §1

Binder | FX conversion (% inhibition), 1000 nM antibody [1] [%] | koff [2] [s⁻¹] | koff [3] [s⁻¹] | Bmax (MFI) [4] [MFI] | Kd [4] [nM] | Kd [5] [nM] | koff [5] [s⁻¹] | kon [5] [M⁻¹ s⁻¹] | Kd [6] [nM] | koff [6] [s⁻¹] | kon [6] [M⁻¹ s⁻¹]
B1 | -0.45 | 0.000727 | 0.00352 |  |  |  |  |  |  |  | 
B2 | -0.99 | 0.000691 | 0.00142 |  |  |  |  |  |  |  | 
B3 | -0.84 | 0.000361 | 0.000782 | 35200 | 0.386 |  |  |  |  |  | 
B4 | 0.77 | 0.00054 | 0.00117 | 25400 | 0.61 |  |  |  |  |  | 
B5 | -1.6 | 0.000416 | 0.00187 | 29100 | 0.344 |  |  |  |  |  | 
B6 | 0.62 | 0.000736 | 0.0017 | 42800 | 0.389 |  |  |  |  |  | 
B7 |  |  |  |  |  | 4.11 | 0.00209 | 508000 | 1.77 | 0.00103 | 582000
